From US20210332382A1

Columns and labels:
[1] = target: Adenovirus delta 24, serotype 5 virus with a modified knob from serotype 3 adenovirus (AdV 5/3), whole virus particles; test: MP-SPR, peptide over AdV on APTES sensor, A195 buffer, Min (after flush, no peptide in solution)
[2] = target: Adenovirus delta 24, serotype 5 virus with a modified knob from serotype 3 adenovirus (AdV 5/3), whole virus particles; test: MP-SPR, peptide over AdV on APTES sensor, A195 buffer, Max (100 µM peptide in solution)
[3] = target: Adenovirus delta 24, serotype 5 virus with a modified knob from serotype 3 adenovirus (AdV 5/3), whole virus particles; test: MP-SPR, peptide over AdV on APTES sensor, water, Max (100 µM peptide in solution)
[4] = target: Adenovirus delta 24, serotype 5 virus with a modified knob from serotype 3 adenovirus (AdV 5/3), whole virus particles; test: MP-SPR, peptide over AdV on APTES sensor, water, Min (after flush, no peptide in solution)

In the case of KKKKKKVFGIELMEVDPIGHLYIFAT [PEP1455 = KKKKKK-… (6K-MAGE-A3 peptide, MAGE-A3 161-180 with a 6-lysine tail at the amino terminus)], the Adsorbed Peptides SPR response [1] is reported as 0.0174 Δ°, the Mass Peptide [1] is reported as 0.08 ng and the Mass/Area Peptide [1] is reported as 10.4 ng/cm^2. The Moles peptide [1] was 2.7e-14 mol, the Adsorbed Peptides SPR response [2] was 0.078 Δ° and the Mass Peptide [2] was 0.37 ng. The Mass/Area Peptide [2] was 46.8 ng/cm^2, the Moles peptide [2] was 1.21e-13 mol and the Adsorbed Peptides SPR response [3] was 0.153 Δ°. The Mass Peptide [3] was 0.72 ng, the Mass/Area Peptide [3] was 91.9 ng/cm^2 and the Moles peptide [3] was 2.38e-13 mol. For the same binder, the Adsorbed Peptides SPR response [4] was 0.0674 Δ°, the Mass Peptide [4] was 0.32 ng and the Mass/Area Peptide [4] was 40.4 ng/cm^2. For the same binder, the Moles peptide [4] was 1.05e-13 mol.

With KKKKKKYLAMPFATPMEAELARRSLA the Adsorbed Peptides SPR response [1] was 0.012 Δ°, the Mass Peptide [1] was 0.06 ng and the Mass/Area Peptide [1] was 7.2 ng/cm^2. For the same binder, the Moles peptide [1] was 1.88e-14 mol, the Adsorbed Peptides SPR response [2] was 0.044 Δ° and the Mass Peptide [2] was 0.21 ng. For the same binder, the Mass/Area Peptide [2] was 26.4 ng/cm^2, the Moles peptide [2] was 6.89e-14 mol and the Adsorbed Peptides SPR response [3] was 0.0386 Δ°. For the same binder, the Mass Peptide [3] was 0.18 ng, the Mass/Area Peptide [3] was 23.2 ng/cm^2 and the Moles peptide [3] was 6.05e-14 mol. For the same binder, the Adsorbed Peptides SPR response [4] was 0.0184 Δ°, the Mass Peptide [4] was 0.09 ng and the Mass/Area Peptide [4] was 11 ng/cm^2. The Moles peptide [4] was 2.88e-14 mol.

With KKKKKKKKKVFGIELMEVDPIGHLYIFAT [PEP1456 = …-… (9K-MAGE-A3 peptide, MAGE-A3 161-180 with a 9-lysine tail at the amino terminus)] the Adsorbed Peptides SPR response [1] was 0.276 Δ°, the Mass Peptide [1] was 1.3 ng and the Mass/Area Peptide [1] was 166 ng/cm^2. The Moles peptide [1] was 3.81e-13 mol, the Adsorbed Peptides SPR response [2] was 0.371 Δ° and the Mass Peptide [2] was 1.75 ng. The Mass/Area Peptide [2] was 223 ng/cm^2, the Moles peptide [2] was 5.12e-13 mol and the Adsorbed Peptides SPR response [3] was 0.13 Δ°. It also gave a Mass Peptide [3] of 0.61 ng, a Mass/Area Peptide [3] of 78.2 ng/cm^2 and a Moles peptide [3] of 1.8e-13 mol. For the same binder, the Adsorbed Peptides SPR response [4] was 0.029 Δ°, the Mass Peptide [4] was 0.14 ng and the Mass/Area Peptide [4] was 17.4 ng/cm^2. The Moles peptide [4] was 4e-14 mol.
